Laboratory results as given in paper PMC3708937, “Function of FlhB, a Membrane Protein Implicated in the Bacterial Flagellar Type III Secretion System” (PLoS ONE, 2013).
Numbering of substitutions follows the chain as printed. Names and notes keep the numbering of the source.

Legend:
[1] = molecular target: T1, Salmonella FliC (flagellin) (Salmonella enterica serovar Typhimurium, UniProt P06179 1-495); experiment: SPR; Biacore T100; AquFlhBC or FliC amine-coupled to a CM5 chip; FliS or FliS A22T flowed at 30 µl/min for 12 min; 10 mM HEPES pH 7.4, 150 mM NaCl, 0.05% (v/v) Surfactant P20; 25°C; steady-state analysis, 1:1 binding model; details: both partners purified
T1 construct: FliC (flagellin), major component of the flagellar filament, Salmonella enterica serovar Typhimurium

[2] = molecular target: T2, Aquifex FlhBC (C-terminal cytoplasmic domain of Aquifex aeolicus FlhB) (Aquifex aeolicus, UniProt O67813 213-350); experiment: as above; details: both partners purified
T2 construct: FlhB of Aquifex aeolicus, cytoplasmic domain FlhBC; also called AquFlhBC; source: purified as described previously [14]
T2 sequence (looked up): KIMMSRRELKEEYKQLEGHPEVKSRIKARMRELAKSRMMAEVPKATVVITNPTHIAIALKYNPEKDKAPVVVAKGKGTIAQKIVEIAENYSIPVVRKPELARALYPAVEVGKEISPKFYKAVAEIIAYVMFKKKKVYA

T1 sequence (P06179 whole entry): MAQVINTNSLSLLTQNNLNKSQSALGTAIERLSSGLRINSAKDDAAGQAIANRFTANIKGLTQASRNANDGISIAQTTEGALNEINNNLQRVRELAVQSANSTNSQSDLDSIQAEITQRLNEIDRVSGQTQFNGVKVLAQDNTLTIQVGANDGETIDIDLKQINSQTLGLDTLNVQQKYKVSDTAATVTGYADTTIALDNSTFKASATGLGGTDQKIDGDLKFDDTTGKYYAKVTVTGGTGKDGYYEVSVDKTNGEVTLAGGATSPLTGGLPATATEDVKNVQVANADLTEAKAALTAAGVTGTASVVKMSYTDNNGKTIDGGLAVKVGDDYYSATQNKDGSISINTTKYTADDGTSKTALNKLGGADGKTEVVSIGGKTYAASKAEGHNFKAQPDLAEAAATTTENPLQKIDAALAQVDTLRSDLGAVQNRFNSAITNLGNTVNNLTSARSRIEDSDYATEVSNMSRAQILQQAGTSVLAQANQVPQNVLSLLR

B1: Salmonella FliS (wild type) (natural protein)
chain: MYTASGIKAYAQVSVESAVMSASPHQLIEMLFDGANSALVRARLFLEQGDVVAKGEALSKAINIIDNGLKAGLDQEKGGEIATNLSELYDYMIRRLLQANLRNDAQAIEEVEGLLSNIAEAWKQISPKASFQESR
notes: FliS, flagellin-specific chaperone of Salmonella enterica serovar Typhimurium; also called wild-type FliS
Kd [1]: 0.7 µM
Kd [2]: 169 µM

B2: Salmonella FliS A22T (natural protein)
chain: B1 chain with A22T
notes: FliS of Salmonella enterica serovar Typhimurium with the point mutation A22T; The mutation arose as a spontaneous extragenic suppressor in the laboratory strain CB351; expression and purification of the protein are not described; also called FliS mutant A22T; fliS22264(A22T)
Kd [1]: 11.9 µM
Kd [2]: 304 µM
